The text below walks through data of patent US20200024322A1 (Eli Lilly, published 2020).

The labels stand for the following.
T1: human GIP receptor (human, UniProt P48546 22-466)
T1 construct: whole, on cells; Used as crude membranes of stably transfected CHO cells; also called hGIPR
T1 sequence (looked up): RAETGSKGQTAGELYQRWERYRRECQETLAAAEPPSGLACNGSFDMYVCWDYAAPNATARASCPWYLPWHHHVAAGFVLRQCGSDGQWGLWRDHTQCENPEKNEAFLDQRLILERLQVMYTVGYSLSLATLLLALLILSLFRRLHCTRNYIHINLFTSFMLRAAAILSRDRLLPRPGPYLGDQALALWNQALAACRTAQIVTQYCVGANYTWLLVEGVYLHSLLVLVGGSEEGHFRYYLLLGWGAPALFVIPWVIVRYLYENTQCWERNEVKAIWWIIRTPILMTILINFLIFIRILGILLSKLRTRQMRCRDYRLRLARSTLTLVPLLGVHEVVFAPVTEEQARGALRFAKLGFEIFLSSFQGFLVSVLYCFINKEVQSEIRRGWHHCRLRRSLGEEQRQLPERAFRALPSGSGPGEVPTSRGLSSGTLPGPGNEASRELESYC

B1: Example 123 (peptide)
peptide: YXEGTXTSDYSIXLDKKAQXEFIEYLIEGGPSSG
modifications: Aib2; αMeF6; αMeL13; K17((2-[2-(2-Amino-ethoxy)-ethoxy]-acetyl)2-(γ-Glu)-CO-(CH2)18-CO2H); Aib20; C-terminal NH2
B2: Example 124 (peptide)
peptide: B1 peptide with K16E
modifications: Aib2; αMeF6; αMeL13; K17((2-[2-(2-Amino-ethoxy)-ethoxy]-acetyl)2-(γ-Glu)-CO-(CH2)18-CO2H); Aib20; C-terminal NH2
B3: Example 10 (peptide)
peptide: Y[Aib]EGTFTSDYSILLDSIAQ[Aib]AFIK([AEEA-AEEA-γGlu-C20 diacid])YLLA[Aib]GPSSGAPPPS-NH2
modifications: N-terminus assumed
SMILES: CC[C@H](C)[C@H](NC(=O)[C@H](CO)NC(=O)[C@H](CC(=O)O)NC(=O)[C@H](CC(C)C)NC(=O)[C@H](CC(C)C)NC(=O)[C@@H](NC(=O)[C@H](CO)NC(=O)[C@H](Cc1ccc(O)cc1)NC(=O)[C@H](CC(=O)O)NC(=O)[C@H](CO)NC(=O)[C@@H](NC(=O)[C@H](Cc1ccccc1)NC(=O)[C@@H](NC(=O)CNC(=O)[C@H](CCC(=O)O)NC(=O)C(C)(C)NC(=O)[C@@H](N)Cc1ccc(O)cc1)[C@@H](C)O)[C@@H](C)O)[C@@H](C)CC)C(=O)N[C@@H](C)C(=O)N[C@@H](CCC(N)=O)C(=O)NC(C)(C)C(=O)N[C@@H](C)C(=O)N[C@@H](Cc1ccccc1)C(=O)N[C@H](C(=O)N[C@@H](CCCCNC(=O)COCCOCCNC(=O)COCCOCCNC(=O)CC[C@H](NC(=O)CCCCCCCCCCCCCCCCCCC(=O)O)C(=O)O)C(=O)N[C@@H](Cc1ccc(O)cc1)C(=O)N[C@@H](CC(C)C)C(=O)N[C@@H](CC(C)C)C(=O)N[C@@H](C)C(=O)NC(C)(C)C(=O)NCC(=O)N1CCC[C@H]1C(=O)N[C@@H](CO)C(=O)N[C@@H](CO)C(=O)NCC(=O)N[C@@H](C)C(=O)N1CCC[C@H]1C(=O)N1CCC[C@H]1C(=O)N1CCC[C@H]1C(=O)N[C@@H](CO)C(N)=O)[C@@H](C)CC
B4: Example 133 (peptide)
peptide: [Desaminotyrosyl][Aib]EGT[αMeF]TSDYSI[Aib]LDEK([AEEA-AEEA-γGlu-C20 diacid])AQ[Aib]AFIEYLIEGGPSSGAPPPS-NH2
SMILES: CC[C@H](C)[C@H](NC(=O)[C@H](CC(C)C)NC(=O)[C@H](Cc1ccc(O)cc1)NC(=O)[C@H](CCC(=O)O)NC(=O)[C@@H](NC(=O)[C@H](Cc1ccccc1)NC(=O)[C@H](C)NC(=O)C(C)(C)NC(=O)[C@H](CCC(N)=O)NC(=O)[C@H](C)NC(=O)[C@H](CCCCNC(=O)COCCOCCNC(=O)COCCOCCNC(=O)CC[C@H](NC(=O)CCCCCCCCCCCCCCCCCCC(=O)O)C(=O)O)NC(=O)[C@H](CCC(=O)O)NC(=O)[C@H](CC(=O)O)NC(=O)[C@H](CC(C)C)NC(=O)C(C)(C)NC(=O)[C@@H](NC(=O)[C@H](CO)NC(=O)[C@H](Cc1ccc(O)cc1)NC(=O)[C@H](CC(=O)O)NC(=O)[C@H](CO)NC(=O)[C@@H](NC(=O)[C@](C)(Cc1ccccc1)NC(=O)[C@@H](NC(=O)CNC(=O)[C@H](CCC(=O)O)NC(=O)C(C)(C)NC(=O)CCc1ccc(O)cc1)[C@@H](C)O)[C@@H](C)O)[C@@H](C)CC)[C@@H](C)CC)C(=O)N[C@@H](CCC(=O)O)C(=O)NCC(=O)NCC(=O)N1CCC[C@H]1C(=O)N[C@@H](CO)C(=O)N[C@@H](CO)C(=O)NCC(=O)N[C@@H](C)C(=O)N1CCC[C@H]1C(=O)N1CCC[C@H]1C(=O)N1CCC[C@H]1C(=O)N[C@@H](CO)C(N)=O
B5: Example 122 (peptide)
peptide: Y[Aib]EGT[αMeF]TSDYSI[αMeL]LDEK([AEEA-AEEA-γGlu-C20 diacid])AQQAFIEYLIE[Aib]GPSSGAPPPS-NH2
modifications: N-terminus assumed
SMILES: CC[C@H](C)[C@H](NC(=O)[C@H](Cc1ccccc1)NC(=O)[C@H](C)NC(=O)[C@H](CCC(N)=O)NC(=O)[C@H](CCC(N)=O)NC(=O)[C@H](C)NC(=O)[C@H](CCCCNC(=O)COCCOCCNC(=O)COCCOCCNC(=O)CC[C@H](NC(=O)CCCCCCCCCCCCCCCCCCC(=O)O)C(=O)O)NC(=O)[C@H](CCC(=O)O)NC(=O)[C@H](CC(=O)O)NC(=O)[C@H](CC(C)C)NC(=O)[C@](C)(CC(C)C)NC(=O)[C@@H](NC(=O)[C@H](CO)NC(=O)[C@H](Cc1ccc(O)cc1)NC(=O)[C@H](CC(=O)O)NC(=O)[C@H](CO)NC(=O)[C@@H](NC(=O)[C@](C)(Cc1ccccc1)NC(=O)[C@@H](NC(=O)CNC(=O)[C@H](CCC(=O)O)NC(=O)C(C)(C)NC(=O)[C@@H](N)Cc1ccc(O)cc1)[C@@H](C)O)[C@@H](C)O)[C@@H](C)CC)C(=O)N[C@@H](CCC(=O)O)C(=O)N[C@@H](Cc1ccc(O)cc1)C(=O)N[C@@H](CC(C)C)C(=O)N[C@H](C(=O)N[C@@H](CCC(=O)O)C(=O)NC(C)(C)C(=O)NCC(=O)N1CCC[C@H]1C(=O)N[C@@H](CO)C(=O)N[C@@H](CO)C(=O)NCC(=O)N[C@@H](C)C(=O)N1CCC[C@H]1C(=O)N1CCC[C@H]1C(=O)N1CCC[C@H]1C(=O)N[C@@H](CO)C(N)=O)[C@@H](C)CC
B6: Example 121 (peptide)
peptide: Y[Aib]EGT[αMeF]TSDYSI[αMeL]LDEK([AEEA-AEEA-γGlu-C20 diacid])AQQAFIEYLIEGGPSSGAPPPS-NH2
modifications: N-terminus assumed
SMILES: CC[C@H](C)[C@H](NC(=O)[C@H](CC(C)C)NC(=O)[C@H](Cc1ccc(O)cc1)NC(=O)[C@H](CCC(=O)O)NC(=O)[C@@H](NC(=O)[C@H](Cc1ccccc1)NC(=O)[C@H](C)NC(=O)[C@H](CCC(N)=O)NC(=O)[C@H](CCC(N)=O)NC(=O)[C@H](C)NC(=O)[C@H](CCCCNC(=O)COCCOCCNC(=O)COCCOCCNC(=O)CC[C@H](NC(=O)CCCCCCCCCCCCCCCCCCC(=O)O)C(=O)O)NC(=O)[C@H](CCC(=O)O)NC(=O)[C@H](CC(=O)O)NC(=O)[C@H](CC(C)C)NC(=O)[C@](C)(CC(C)C)NC(=O)[C@@H](NC(=O)[C@H](CO)NC(=O)[C@H](Cc1ccc(O)cc1)NC(=O)[C@H](CC(=O)O)NC(=O)[C@H](CO)NC(=O)[C@@H](NC(=O)[C@](C)(Cc1ccccc1)NC(=O)[C@@H](NC(=O)CNC(=O)[C@H](CCC(=O)O)NC(=O)C(C)(C)NC(=O)[C@@H](N)Cc1ccc(O)cc1)[C@@H](C)O)[C@@H](C)O)[C@@H](C)CC)[C@@H](C)CC)C(=O)N[C@@H](CCC(=O)O)C(=O)NCC(=O)NCC(=O)N1CCC[C@H]1C(=O)N[C@@H](CO)C(=O)N[C@@H](CO)C(=O)NCC(=O)N[C@@H](C)C(=O)N1CCC[C@H]1C(=O)N1CCC[C@H]1C(=O)N1CCC[C@H]1C(=O)N[C@@H](CO)C(N)=O
B7: Example 137 (peptide)
peptide: YXEGTXTSDYSIXLDKKAQXXFIEYLIEGGPSSGAPPPS
modifications: Aib2; αMeF6; αMeL13; K17((2-[2-(2-Amino-ethoxy)-ethoxy]-acetyl)2-(γ-Glu)-CO-(CH2)18-CO2H); Aib20; Aad21; C-terminal NH2
B8: Example 144 (peptide)
peptide: B7 peptide with X20H
modifications: Aib2; αMeF6; αMeL13; K17((2-[2-(2-Amino-ethoxy)-ethoxy]-acetyl)2-(γ-Glu)-CO-(CH2)18-CO2H); Aib21; C-terminal NH2
B9: Example 152 (peptide)
peptide: B7 peptide with K16E, X21E, E24X
modifications: Aib2; αMeF(2F)6; αMeL13; K17((2-[2-(2-Amino-ethoxy)-ethoxy]-acetyl)2-(γ-Glu)-CO-(CH2)18-CO2H); Aib20; Aib24; C-terminal NH2
B10: Example 143 (peptide)
peptide: B7 peptide
modifications: Aib2; αMeF6; αMeL13; K17((2-[2-(2-Amino-ethoxy)-ethoxy]-acetyl)2-(γ-Glu)-CO-(CH2)18-CO2H); Aib20; Aib21; C-terminal NH2
B11: Example 147 (peptide)
peptide: B7 peptide with K16E, X21E, E24X
modifications: Aib2; αMeF(2F)6; αMeL13; K17((2-[2-(2-Amino-ethoxy)-ethoxy]-acetyl)2-(γ-Glu)-CO-(CH2)18-CO2H); Aib20; Aad24; C-terminal NH2

As a reminder, the Ki is a measure of affinity in units of concentration, obtained from inhibition or displacement. High values mean weaker binding, low ones tighter binding.

Substitutions are numbered along the chain they refer to. Numbered stars: 1 amine (or outer) side, 2 acyl side, 3 side chain; on linkers, the order of the positions; unused ones are H or OH. Square brackets hold non-standard residues; d marks the D form. Side chains are listed from the residue outwards. Ends that are not written are not given here. * marks the point of attachment. C20 diacid = O=C(O)CCCCCCCCCCCCCCCCCCC(=O)*; γGlu = O=C(O)[C@H](CCC(=O)[*:2])N[*:1]; Desaminotyrosyl = O=C(CCc1ccc(O)cc1)*; αMeF = C[C@](N)(Cc1ccccc1)C(=O)O; αMeL = CC(C)C[C@](C)(N)C(=O)O; AEEA = NCCOCCOCC(=O)O; Aib = CC(C)(N)C(=O)O

The first test deals with T2, human glucagon receptor (human, UniProt P47871 26-477).
T2 construct: whole, on cells; Used as crude membranes of stably transfected HEK293 cells; also called hGcgR; hGLcgR
T2 sequence (P47871 26-477): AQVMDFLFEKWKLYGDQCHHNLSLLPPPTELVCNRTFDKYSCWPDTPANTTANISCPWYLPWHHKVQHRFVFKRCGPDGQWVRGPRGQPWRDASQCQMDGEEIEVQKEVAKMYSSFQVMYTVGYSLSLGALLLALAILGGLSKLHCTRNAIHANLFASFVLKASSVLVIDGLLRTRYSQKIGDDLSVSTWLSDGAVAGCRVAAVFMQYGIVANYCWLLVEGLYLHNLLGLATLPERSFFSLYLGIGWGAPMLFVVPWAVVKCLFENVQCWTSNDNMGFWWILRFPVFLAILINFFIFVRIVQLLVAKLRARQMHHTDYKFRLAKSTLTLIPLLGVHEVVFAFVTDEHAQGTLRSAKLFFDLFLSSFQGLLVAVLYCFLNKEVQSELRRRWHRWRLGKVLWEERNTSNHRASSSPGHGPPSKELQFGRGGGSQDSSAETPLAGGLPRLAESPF
The test is described as follows: SPA, [125I]-Gcg displacement, hGcgR membranes.
The molecule B1 came in with a Ki of 80.1 nM.
Same read-out and setting: the same measure for B2: 41.5 nM; for B3: 226 nM.
The same measure, in the same setting: as for B4, the figure is 216 nM; as for B5, 43.3 nM.
Still for that read-out and setting: the same measure for B6: 51.9 nM; for B7: 98.1 nM; for B8: 77 nM.
With B9, the Ki is 93.4 nM.
Same read-out and setting: the same measure for B10: 65.5 nM.
Same read-out and setting: the same measure for B11: 64.9 nM.

A further test concerns the target T3, human GLP-1 receptor (human, UniProt P43220 24-463).
T3 construct: whole, on cells; Used as crude membranes of stably transfected HEK293 cells; also called hGLP1R; hGLP-1R
The test is described as follows: SPA, [125I]-GLP-1 displacement, hGLP-1R membranes.
Regarding B1, the Ki turned out to be 1.31 nM.
Still for that read-out and setting: the same measure for B2: 4.87 nM; for B3: 9.33 nM.
The same measure, in the same setting: as for B4, the figure is 11.4 nM.
For B5, the affinity, expressed as Ki, was 3.36 nM.
For the molecule B6, the affinity corresponds to a Ki of 3.16 nM.
Molecule B7 returned an inhibition constant Ki of 1.24 nM.
As to B8, the affinity, expressed as Ki, was 1.78 nM.
Still for that read-out and setting: as for B9, the figure is 48 nM; as for B10, 1.15 nM; as for B11, 4.47 nM.

The next test addresses T1, human GIP receptor. The test is described as follows: SPA, [125I]-GIP displacement, hGIPR membranes.
As to B1, the affinity corresponds to a Ki of 0.0469 nM.
Regarding B2, the Ki was 0.0424 nM.
On the same count and under the same terms, the same measure for B3: 0.109 nM; for B4: 0.157 nM.
On the same count and under the same terms, as for B5, the figure is 0.19 nM.
Same read-out and setting: as for B6, the figure is 0.177 nM; as for B7, 0.0373 nM.
Regarding B8, the Ki came out at 0.0341 nM.
The same measure, in the same setting: the same measure for B9: 0.117 nM.
Molecule B10 yielded a Ki of 0.0304 nM.
On the same count and under the same terms, the same measure for B11: 0.0981 nM.
